For experiment [1], the target named is Survivin (UniProt O15392). The experiment can be described thus: biotinylated peptide pull-down, immunoblot. Conditions: reference: unmodified H3(1-21) peptide; sites T3. Background: A western blot detects proteins with antibodies after separation by electrophoresis.
In experiment [2] the target is Survivin (UniProt O15392). The experiment can be described thus: peptide pull-down, Coomassie staining. Conditions: reference: unmodified H3 peptide; sites T3.
In experiment [3] the target is Histone-H3 (1-21) peptide phosphorylated at Thr-3 (UniProt P68431). The experiment can be described thus: fluorescence polarisation.

Consider “Histone-H3 1-21 (from UniProt P68431) H3T3ph peptide”, for which the “binding against the reference” value with Survivin [1] is on record as “stronger”.
As for “Histone-H3 (from UniProt P68431) H3T3ph peptide”, in the experiment with Survivin [2], the “binding against the reference” value was “stronger”.
For “xISD complex containing INCENP(1-58), Survivin and Dasra-A (from UniProt Q4V7H8 1-296)”, the fold enhancement of binding by T3ph against unmodified H3 in experiment [3] is 20 fold.

Values taken from publication PMC2967368.
